In article PMC7261175, “A splice site-sensing conformational switch in U2AF2 is modulated by U2AF1 and its recurrent myelodysplasia-associated mutation” (Nucleic Acids Research, 2019):
Changes are numbered by the printed parent chain. In names and notes the source's numbering stands.

Tests used:
[1] = biological target: T1, His6SumoMBP-U2AF1 S34F;U2AF2 Cy3/Cy5 (human;human, UniProt Q01081;P26368-2 1-188;85-342, S34F;C67S|A181C;C305A;Q324C); assay: smFRET; RNA tethered; similar to WT; Anisotropy: 150 mM NaCl, 25 mM HEPES pH 6.8, 0.5 mM TCEP, 3% glycerol, 20 uM ZnCl2, 0.2 U/ul SUPERase-In; smFRET: 25 mM HEPES pH 7.0, 150 mM KCl, 0.01% octaethylene glycol monododecyl ether, 0.2 mM TCEP, 6 mM BME, 1.5 mM Trolox, oxygen scavenger, room temperature, excess U2AF1 (1000 nM) with heterodimer; details: protein: recombinant;recombinant, tags: N-terminal His6-SUMO-MBP with AAA linker, C-terminal extra Ala;GST cleaved, Cy3/Cy5 on C181 and C324, copies: 1;1, label: biotin on annealed DNA
T1 sequence (P26368 85-342 A181C/C305A/Q324C, one chain of several): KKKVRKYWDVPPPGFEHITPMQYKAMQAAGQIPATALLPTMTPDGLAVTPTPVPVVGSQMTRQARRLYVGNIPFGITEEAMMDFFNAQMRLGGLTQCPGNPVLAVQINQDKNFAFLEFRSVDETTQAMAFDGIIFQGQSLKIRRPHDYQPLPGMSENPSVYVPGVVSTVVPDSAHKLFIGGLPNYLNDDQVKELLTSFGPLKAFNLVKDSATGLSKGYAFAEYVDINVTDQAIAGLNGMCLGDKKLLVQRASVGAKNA

[2] = biological target: T2, His6SumoMBP-U2AF1;U2AF2 Cy3/Cy5 (human;human, UniProt Q01081;P26368-2 1-188;85-342, C67S|A181C;C305A;Q324C); assay: smFRET; RNA tethered; open and closed; Anisotropy: 150 mM NaCl, 25 mM HEPES pH 6.8, 0.5 mM TCEP, 3% glycerol, 20 uM ZnCl2, 0.2 U/ul SUPERase-In; smFRET: 25 mM HEPES pH 7.0, 150 mM KCl, 0.01% octaethylene glycol monododecyl ether, 0.2 mM TCEP, 6 mM BME, 1.5 mM Trolox, oxygen scavenger, room temperature, excess U2AF1 (1000 nM) with heterodimer; details: protein: recombinant;recombinant; tags: N-terminal His6-SUMO-MBP with AAA linker; C-terminal extra Ala;GST cleaved; Cy3/Cy5 on C181 and C324; copies: 1;1; label: biotin on annealed DNA
T2 sequence (P26368 85-342 A181C/C305A/Q324C, one chain of several): as above

[3] = biological target: T3, U2AF2 Cy3/Cy5 isolated subunit (human, UniProt P26368-2 113-342, A181C;C305A;Q324C); assay: as above; details: protein: recombinant; tags: His6 and T7 tags; Cy3/Cy5; label: biotin on annealed DNA
T3 sequence (P26368 113-342 A181C/C305A/Q324C): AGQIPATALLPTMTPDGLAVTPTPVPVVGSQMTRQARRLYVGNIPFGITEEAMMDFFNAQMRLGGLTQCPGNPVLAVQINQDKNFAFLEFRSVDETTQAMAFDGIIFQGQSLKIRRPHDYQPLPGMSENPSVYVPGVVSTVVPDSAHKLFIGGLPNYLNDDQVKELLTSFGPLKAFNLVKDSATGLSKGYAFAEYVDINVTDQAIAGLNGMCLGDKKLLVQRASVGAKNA

[4] = biological target: T1, His6SumoMBP-U2AF1 S34F;U2AF2 Cy3/Cy5; assay: smFRET; RNA tethered; 33% closed; Anisotropy: 150 mM NaCl, 25 mM HEPES pH 6.8, 0.5 mM TCEP, 3% glycerol, 20 uM ZnCl2, 0.2 U/ul SUPERase-In; smFRET: 25 mM HEPES pH 7.0, 150 mM KCl, 0.01% octaethylene glycol monododecyl ether, 0.2 mM TCEP, 6 mM BME, 1.5 mM Trolox, oxygen scavenger, room temperature, excess U2AF1 (1000 nM) with heterodimer; details: protein: recombinant;recombinant; tags: N-terminal His6-SUMO-MBP with AAA linker; C-terminal extra Ala;GST cleaved; Cy3/Cy5 on C181 and C324; copies: 1;1; label: biotin on annealed DNA
[5] = biological target: T2, His6SumoMBP-U2AF1;U2AF2 Cy3/Cy5; assay: smFRET; RNA tethered; 66% closed; Anisotropy: 150 mM NaCl, 25 mM HEPES pH 6.8, 0.5 mM TCEP, 3% glycerol, 20 uM ZnCl2, 0.2 U/ul SUPERase-In; smFRET: 25 mM HEPES pH 7.0, 150 mM KCl, 0.01% octaethylene glycol monododecyl ether, 0.2 mM TCEP, 6 mM BME, 1.5 mM Trolox, oxygen scavenger, room temperature, excess U2AF1 (1000 nM) with heterodimer; details: protein: recombinant;recombinant; tags: N-terminal His6-SUMO-MBP with AAA linker; C-terminal extra Ala;GST cleaved; Cy3/Cy5 on C181 and C324; copies: 1;1; label: biotin on annealed DNA
[6] = biological target: T3, U2AF2 Cy3/Cy5 isolated subunit; assay: smFRET; RNA tethered; Anisotropy: 150 mM NaCl, 25 mM HEPES pH 6.8, 0.5 mM TCEP, 3% glycerol, 20 uM ZnCl2, 0.2 U/ul SUPERase-In; smFRET: 25 mM HEPES pH 7.0, 150 mM KCl, 0.01% octaethylene glycol monododecyl ether, 0.2 mM TCEP, 6 mM BME, 1.5 mM Trolox, oxygen scavenger, room temperature, excess U2AF1 (1000 nM) with heterodimer; details: protein: recombinant, tags: His6 and T7 tags, label: biotin on annealed DNA, stem-loop
[7] = biological target: T2, His6SumoMBP-U2AF1;U2AF2 Cy3/Cy5; assay: smFRET; RNA tethered; ~70% closed; Anisotropy: 150 mM NaCl, 25 mM HEPES pH 6.8, 0.5 mM TCEP, 3% glycerol, 20 uM ZnCl2, 0.2 U/ul SUPERase-In; smFRET: 25 mM HEPES pH 7.0, 150 mM KCl, 0.01% octaethylene glycol monododecyl ether, 0.2 mM TCEP, 6 mM BME, 1.5 mM Trolox, oxygen scavenger, room temperature, excess U2AF1 (1000 nM) with heterodimer; details: protein: recombinant;recombinant; tags: N-terminal His6-SUMO-MBP with AAA linker; C-terminal extra Ala;GST cleaved; Cy3/Cy5 on C181 and C324; copies: 1;1; label: biotin on annealed DNA; stem-loop
[8] = biological target: T4, U2AF2^Cy3/Cy5 (residues 85-342, C305A, A181C, Q324C, labelled with Cy3/Cy5) (human, UniProt P26368-2 85-342, C305A | A181C | Q324C, Cy3- or Cy5-maleimide on the cysteines at 181 and 324 (a mixture of Cy3/Cy5 at each site)); assay: SEC; labelled U2AF2 mixed with stoichiometric His6SumoMBP-U2AF1, salt lowered to 150 mM NaCl, 25 mM HEPES pH 7.0, 3% glycerol, 0.2 mM TCEP; complex purified on Superdex-200; details: both partners purified
T4 construct: pGEX6p-1 vector, GST removed with PreScission protease; also called U2AF^65; labeled U2AF2; not shown: GST, N-terminal, cleaved
T4 sequence (P26368 85-342 A181C/C305A/Q324C): as the sequence (P26368 85-342 A181C/C305A/Q324C, one chain of several) above

[9] = biological target: T5, D215R/G319R U2AF2^Cy3/Cy5 (residues 85-342, C305A, A181C, Q324C, labelled with Cy3/Cy5) (human, UniProt P26368-2 85-342, D215R | G319R | C305A | A181C | Q324C, Cy3- or Cy5-maleimide on the cysteines at 181 and 324 (a mixture of Cy3/Cy5 at each site)); assay: single-molecule imaging (smFRET, TIRF) of labelled U2AF2 tethered to the slide through His-tagged U2AF1; His6SumoMBP-U2AF1 with bound U2AF2^Cy3/Cy5 (5 nM heterodimer) held on biotinyl-NTA(Ni2+)/neutravidin slide; 1000 nM excess U2AF1 in the buffer; no RNA; room temperature; 25 mM HEPES pH 7.0, 150 mM KCl; details: both partners purified
T5 construct: The methods print the mutant once as D215R-D319R; results, legends and discussion print D215R/G319R; also called D215R/G319R mutant; D215R-D319R-mutant U2AF2; not shown: GST, N-terminal, cleaved
T5 sequence (P26368 85-342 A181C/D215R/C305A/G319R/Q324C): as the sequence (P26368 85-342 A181C/C305A/Q324C, one chain of several) above, with D131R, G235R counted along it

[10] = biological target: T4, U2AF2^Cy3/Cy5 (residues 85-342, C305A, …); assay: as above; details: both partners purified
[11] = biological target: T1, His6SumoMBP-U2AF1 S34F;U2AF2 Cy3/Cy5; assay: smFRET; RNA tethered; same as IgM(-3C); Anisotropy: 150 mM NaCl, 25 mM HEPES pH 6.8, 0.5 mM TCEP, 3% glycerol, 20 uM ZnCl2, 0.2 U/ul SUPERase-In; smFRET: 25 mM HEPES pH 7.0, 150 mM KCl, 0.01% octaethylene glycol monododecyl ether, 0.2 mM TCEP, 6 mM BME, 1.5 mM Trolox, oxygen scavenger, room temperature, excess U2AF1 (1000 nM) with heterodimer; details: protein: recombinant;recombinant; tags: N-terminal His6-SUMO-MBP with AAA linker; C-terminal extra Ala;GST cleaved; Cy3/Cy5 on C181 and C324; copies: 1;1; label: biotin on annealed DNA; stem-loop (predicted)
[12] = biological target: T2, His6SumoMBP-U2AF1;U2AF2 Cy3/Cy5; assay: smFRET; RNA tethered; more open than IgM(-3C); Anisotropy: 150 mM NaCl, 25 mM HEPES pH 6.8, 0.5 mM TCEP, 3% glycerol, 20 uM ZnCl2, 0.2 U/ul SUPERase-In; smFRET: 25 mM HEPES pH 7.0, 150 mM KCl, 0.01% octaethylene glycol monododecyl ether, 0.2 mM TCEP, 6 mM BME, 1.5 mM Trolox, oxygen scavenger, room temperature, excess U2AF1 (1000 nM) with heterodimer; details: protein: recombinant;recombinant; tags: N-terminal His6-SUMO-MBP with AAA linker; C-terminal extra Ala;GST cleaved; Cy3/Cy5 on C181 and C324; copies: 1;1; label: biotin on annealed DNA; stem-loop (predicted)
[13] = biological target: T2, His6SumoMBP-U2AF1;U2AF2 Cy3/Cy5; assay: smFRET titration; protein tethered; from 0.4 and 0.6 FRET peak areas; Anisotropy: 150 mM NaCl, 25 mM HEPES pH 6.8, 0.5 mM TCEP, 3% glycerol, 20 uM ZnCl2, 0.2 U/ul SUPERase-In; smFRET: 25 mM HEPES pH 7.0, 150 mM KCl, 0.01% octaethylene glycol monododecyl ether, 0.2 mM TCEP, 6 mM BME, 1.5 mM Trolox, oxygen scavenger, room temperature, excess U2AF1 (1000 nM) with heterodimer; details: protein: recombinant;recombinant; tags: N-terminal His6-SUMO-MBP with AAA linker; C-terminal extra Ala;GST cleaved; Cy3/Cy5 on C181 and C324; copies: 1;1

## UACUAAAUUAAUUUCUAGAAAAGAGU (ssRNA, 3' PEG18-DNA conjugate) [DEK (-3U)]
[1]
  binding result: binds
[2]
  binding result: binds
[3]
  binding result: binds

## ACUUUUAACUCUCGAUAGGAACUAAU (ssRNA, 3' PEG18-DNA conjugate) [FMR1]
[4]
  binding result: binds
[5]
  binding result: binds

## UGUCUCUGUCACCUGCAGGUGAAAUG (structured_RNA, 3' PEG18-DNA conjugate) [IgM (-3C)]
[6]
  binding result: binds
[7]
  binding result: binds
[1]; stem-loop
  binding result: binds

B1: His6SumoMBP-U2AF1 (residues 1-188, C67S, C-terminal alanine) (domain or fragment, human)
chain: MAEYLASIFGTEKDKVNCSFYFKIGACRHGDRCSRLHNKPTFSQTIALLNIYRNPQNSSQSADGLRSAVSDVEMQEHYDEFFEEVFTEMEEKYGEVEEMNVCDNLGDHLVGNVYVKFRREEDAEKAVIDLNNRWFNGQPIHAELSPVTDFREACCRQYEMGECTRGGFCNFMHLKPISRELRRELYGRA
notes: C-terminal alanine added to enhance soluble protein expression; A three-alanine linker is part of the N-terminal tag; Modified pCDF-1b vector; also called U2AF^35; MBP-fused U2AF1; source: E. coli BL21(DE3), purified (HisTrap, Superdex-75 SEC); not shown: His6, N-terminal, kept; Sumo, N-terminal, kept; MBP, N-terminal, kept
[8]
  binding result: binds
[9]
  binding result: binds

B2: S34F-mutant His6SumoMBP-U2AF1 (residues 1-188, C67S, C-terminal alanine) (domain or fragment, human)
chain: B1 chain with S34F
notes: C-terminal alanine added to enhance soluble protein expression; S34F was introduced into the corresponding wild-type U2AF1 construct; three-alanine linker in the N-terminal tag as for m1; also called S34F U2AF1; S34F mutant U2AF1; source: E. coli BL21(DE3), purified by identical methods as the wild-type parent (HisTrap, Superdex-75 SEC); not shown: His6, N-terminal, kept; Sumo, N-terminal, …
[10]
  binding result: binds

## CCAUUUAUUUUGACUUAGAUUAUAUU (ssRNA, 3' PEG18-DNA conjugate) [CASP8]
[1]
  binding result: binds
[2]
  binding result: binds

## UGUCUCUGUCACCUGUAGGUGAAAUG (structured_RNA, 3' PEG18-DNA conjugate) [IgM(-3U)]
[11]
  binding result: binds
[12]
  binding result: binds

## UCCCUUUUUUUUCCACAGCUCGCGGU (ssRNA) [AdML]
[13]
  Kd: ~600 nM
